Values of other authors as cited in article PMC12355045.
pKd: −log10 of the molar value.

Biological target: hemoglobin αβ dimer (Homo sapiens) (UniProt P69905)

hemoglobin αβ dimer (from UniProt P69905)
pKd: 6.00
